From publication PMC8809517, “Cofactor-independent RNA editing by a synthetic S-type PPR protein”

Tests used:
Experiment in all cases: high-throughput RNA pulldown from lysate on Ni-NTA beads; HRP: 50 mM Tris pH 8, 150 mM NaCl, 1 mM beta-mercaptoethanol, 50 ug/ml BSA, 3 ug/ml yeast RNA, 0.5% heparin; ITC and FP: Tris pH 8, 200 mM KCl, 5% glycerol; MST: 50 mM Tris pH 8, 200 mM NaCl, 1 mM DTT, BSA, heparin, 0.05% Tween 20
Settings in all cases: tags: N-terminal His-eGFP
[1] = target: T1, GFP-9S library array, motif 4 ND N98T;D124R (synthetic construct, N98T;D124R)
T1 chain: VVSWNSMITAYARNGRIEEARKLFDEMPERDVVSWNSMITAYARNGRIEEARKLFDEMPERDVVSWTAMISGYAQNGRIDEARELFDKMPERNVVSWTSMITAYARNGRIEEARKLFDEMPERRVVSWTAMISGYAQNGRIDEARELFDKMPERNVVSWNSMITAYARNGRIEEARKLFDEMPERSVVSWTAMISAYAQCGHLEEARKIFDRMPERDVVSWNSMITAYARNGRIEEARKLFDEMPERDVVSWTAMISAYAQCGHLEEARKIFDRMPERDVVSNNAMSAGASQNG

[2] = target: T2, GFP-9S library array, motif 4 ND N98K;D124S (synthetic construct, N98K;D124S)
T2 chain: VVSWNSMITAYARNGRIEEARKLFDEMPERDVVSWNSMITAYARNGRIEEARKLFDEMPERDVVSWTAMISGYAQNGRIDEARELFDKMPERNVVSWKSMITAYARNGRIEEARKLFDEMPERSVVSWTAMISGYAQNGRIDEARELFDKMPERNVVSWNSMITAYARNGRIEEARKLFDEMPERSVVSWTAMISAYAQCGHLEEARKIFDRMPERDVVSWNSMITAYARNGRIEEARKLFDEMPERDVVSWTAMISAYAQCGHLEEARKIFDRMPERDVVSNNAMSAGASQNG

[3] = target: T3, GFP-9S library array, motif 4 ND N98T;D124K (synthetic construct, N98T;D124K)
T3 chain: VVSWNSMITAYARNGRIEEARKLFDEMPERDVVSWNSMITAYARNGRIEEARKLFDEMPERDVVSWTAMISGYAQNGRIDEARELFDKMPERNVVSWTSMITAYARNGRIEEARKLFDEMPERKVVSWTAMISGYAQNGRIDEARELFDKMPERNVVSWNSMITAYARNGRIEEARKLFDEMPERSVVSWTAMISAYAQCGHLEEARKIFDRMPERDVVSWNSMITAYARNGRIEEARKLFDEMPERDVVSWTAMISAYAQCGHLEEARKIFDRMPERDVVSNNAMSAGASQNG

[4] = target: T4, GFP-9S library array, motif 4 ND N98C;D124R (synthetic construct, N98C;D124R)
T4 chain: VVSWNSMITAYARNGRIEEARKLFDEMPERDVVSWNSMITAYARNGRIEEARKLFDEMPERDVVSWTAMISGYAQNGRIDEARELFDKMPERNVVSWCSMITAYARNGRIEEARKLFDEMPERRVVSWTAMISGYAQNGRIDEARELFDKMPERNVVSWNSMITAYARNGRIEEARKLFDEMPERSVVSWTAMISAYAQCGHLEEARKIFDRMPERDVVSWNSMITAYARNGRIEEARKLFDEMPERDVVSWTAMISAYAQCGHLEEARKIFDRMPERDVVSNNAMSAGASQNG

[5] = target: T5, GFP-9S library array, motif 4 ND D124P (synthetic construct, D124P)
T5 chain: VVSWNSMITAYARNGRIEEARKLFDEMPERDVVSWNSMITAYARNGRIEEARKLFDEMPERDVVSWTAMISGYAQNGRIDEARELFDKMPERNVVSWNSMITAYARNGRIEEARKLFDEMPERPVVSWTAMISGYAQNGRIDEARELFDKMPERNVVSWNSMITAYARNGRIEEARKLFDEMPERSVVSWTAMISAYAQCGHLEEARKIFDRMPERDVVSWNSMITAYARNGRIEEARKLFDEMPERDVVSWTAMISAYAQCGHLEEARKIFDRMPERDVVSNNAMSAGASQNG

Binder | Kd ([1]; label: 5' Cy5) | Kd ([2]; label: 5' Cy5) | Kd ([3]; label: 5' Cy5) | Kd ([4]; label: 5' Cy5) | Kd ([5]; label: 5' Cy5) | Kd ([1]; label: 5' IRDye 800CW) | Kd ([2]; label: 5' IRDye 800CW) | Kd ([3]; label: 5' IRDye 800CW) | Kd ([4]; label: 5' IRDye 800CW) | Kd ([5]; label: 5' IRDye 800CW)
AUUACACGUGA (ssRNA) [Cy5-rpoA] | 132 nM | 67.8 nM | 131 nM | 160 nM | 123 nM | – | – | – | – | –
AUUAGACGUGA (ssRNA) [Cy5-rpoA-G] | 120 nM | 89.3 nM | 131 nM | 54.9 nM | 158 nM | – | – | – | – | –
AUUAAACGUGA (ssRNA) [IR-rpoA-A] | – | – | – | – | – | 80.8 nM | 120 nM | 53.4 nM | 44.5 nM | 290 nM
AUUAUACGUGA (ssRNA) [IR-rpoA-U] | – | – | – | – | – | 133 nM | 40.8 nM | 81.9 nM | 96.8 nM | 154 nM
